From patent publication US20240368664A1, “LIVE YEAST BIOSENSORS AND METHODS OF USE THEREOF” (priority 2021, published 2024)

Experiments:
[1] = target: T1, Schizosaccharomyces japonicus pheromone GPCR SjSte2 (Schizosaccharomyces japonicus); assay: cell-based or functional assay
T1 sequence: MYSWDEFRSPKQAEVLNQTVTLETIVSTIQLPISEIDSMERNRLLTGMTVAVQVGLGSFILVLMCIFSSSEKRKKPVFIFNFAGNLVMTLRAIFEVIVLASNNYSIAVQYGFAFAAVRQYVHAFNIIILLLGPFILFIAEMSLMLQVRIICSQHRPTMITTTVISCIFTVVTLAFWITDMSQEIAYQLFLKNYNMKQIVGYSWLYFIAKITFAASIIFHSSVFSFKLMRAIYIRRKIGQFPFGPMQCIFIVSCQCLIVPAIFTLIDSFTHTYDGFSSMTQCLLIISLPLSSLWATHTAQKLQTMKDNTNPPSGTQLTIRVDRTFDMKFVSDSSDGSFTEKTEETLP

[2] = target: T2, Scheffersomyces stipitis pheromone GPCR SsSte2 (Scheffersomyces stipitis); assay: cell-based or functional assay
T2 sequence: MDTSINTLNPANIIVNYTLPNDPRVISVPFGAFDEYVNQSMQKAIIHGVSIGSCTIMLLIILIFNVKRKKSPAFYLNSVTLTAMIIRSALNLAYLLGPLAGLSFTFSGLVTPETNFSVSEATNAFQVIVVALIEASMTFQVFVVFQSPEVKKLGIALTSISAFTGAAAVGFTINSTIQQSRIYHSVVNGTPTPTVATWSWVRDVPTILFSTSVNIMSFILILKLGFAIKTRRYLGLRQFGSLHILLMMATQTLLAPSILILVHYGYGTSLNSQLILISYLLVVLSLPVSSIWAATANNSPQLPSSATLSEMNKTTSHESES

| Substance | apparent EC50, ymTurquoise2, strain co-expressing SjSxa2 [1] [µM] | EC50, mCherry, yMJ194 [2] [µM] | EC50, mCherry, yTC453 [2] [µM] | maximal activation, mCherry, yMJ194 [2] [A.U.] | maximal activation, mCherry, yTC453 [2] [A.U.] |
| --- | --- | --- | --- | --- | --- |
| S. japonicus pheromone peptide (SjPep) | 100 | – | – | – | – |
| Scheffersomyces stipitis cognate peptide (SsPep) | – | 0.012 | 0.007 | 320 | 5300 |
